Test results from the supplement of paper PMC7877785.
± gives the uncertainty stated by the source.

Experiment: self-splicing fitness, log relative to wild type (ln ratio); higher = more splicing; Tetrahymena group I intron in knt gene, E. coli kanamycin selection, DiMSum; sequences stand for … in CUCUCU…GGAGGGAAAAGUUAUCAGGCAUGCACCUGGUAGCUAGUCUUUAAACCAAUAGAUUGCAUCGGUUUAAAAGGCAAGACCGUCAAAUUGCGGGAAAGGGGUCAACAGCCGUUCAGUACCAAGUCUCAGGGGAAACUUUGAGAUGGCCUUGCAAAGGGUAUGGUAAUAAGCUGACGGACAUGGUCCUAACCACGCAGCCAAGUCCUAAGUCAACAGAUCUUCUGUUGAUAUGGAUGCAGUUCACAGACUAAAUGUCGGUCGGGGAAGAUGUAUUCUUCUCAUAAGAUAUAGUCGGACCUCUCCUUAAUGGGAGCUAGCGGAUGAAGUGAUGCAACACUGGAGCCGCUGGGAACUAAUUUGUAUGCGAAAGUAUAUUGAUUAGUUUUGGAGUACUCGUGGUCG
Summary of the method: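 The eight P1ex-region nucleotides of an intron in the knt kanamycin-resistance gene on pET-22b(+) were all randomised and the library put into E. coli BL21(DE3). Six replicate transformations were grown overnight at 37°C or 30°C on LB agar with or without 25 μg/mL kanamycin, together with 100 μg/mL carbenicillin, 50 μM IPTG and 0.2% rhamnose. Colonies were pooled and amplicon-sequenced on an Illumina HiSeq 2500. Fitness from DiMSum is the error-weighted combination of wild-type-normalised replicate fold changes, kanamycin over none.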

| Sequence | self-splicing fitness (ln) (30 °C) | self-splicing fitness (ln) (37 °C) |
| --- | --- | --- |
| CUAAAGCAAUAUUACGGGAC | -2.11 ± 0.13 | -0.677 ± 0.13 |
| CUAAAGCAAUAUUACGGUCC | -4.33 ± 0.47 | -2.2 ± 0.35 |
| CUAAAGCAAUAUUACGUAAC | -2.86 ± 0.12 | -1.62 ± 0.12 |
| CUAAAGCAAUAUUACGUCGA |  | -1.99 ± 0.2 |
| CUAAAGCAAUAUUACGUCUC |  | -1.93 ± 0.46 |
| CUAAAGCAAUAUUACGUGCA | -2.77 ± 0.2 | -1.91 ± 0.18 |
| CUAAAGCAAUAUUACGUGCC | -4.57 ± 0.29 | -2.25 ± 0.18 |
| CUAAAGCAAUAUUACGUGGU | -3.41 ± 0.12 | -2.73 ± 0.15 |
| CUAAAGCAAUAUUACGUGUA | -3.82 ± 0.19 | -3.2 ± 0.23 |
| CUACAGCAAUAUUACGACCG | 0.86 ± 0.11 | -0.315 ± 0.14 |
| CUACAGCAAUAUUACGAGAA | -2.84 ± 0.46 | -1.92 ± 0.28 |
| CUACAGCAAUAUUACGAGUU | -4.98 ± 0.2 | -2.76 ± 0.17 |
| CUACAGCAAUAUUACGCAUA | -3.32 ± 0.24 | -2.28 ± 0.2 |
| CUACAGCAAUAUUACGCCCC | -2.86 ± 0.41 | -1.4 ± 0.35 |
| CUACAGCAAUAUUACGCUAG | -3.58 ± 0.18 | -2.36 ± 0.23 |
| CUACAGCAAUAUUACGCUGU | -3.9 ± 0.2 | -2.8 ± 0.22 |
| CUACAGCAAUAUUACGCUUG | -2.37 ± 0.15 | -2.26 ± 0.16 |
| CUACAGCAAUAUUACGGCUC | -3.53 ± 0.23 | -1.8 ± 0.31 |
| CUACAGCAAUAUUACGGUAG | -3.39 ± 0.15 | -3.06 ± 0.23 |
| CUACAGCAAUAUUACGGUCA | -3.37 ± 0.28 | -1.96 ± 0.24 |
| CUACAGCAAUAUUACGUAAG | -1.14 ± 0.068 | -0.424 ± 0.092 |
| CUACAGCAAUAUUACGUACG | -0.289 ± 0.088 | 0.18 ± 0.099 |
| CUACAGCAAUAUUACGUCAC | -3.35 ± 0.36 | -2.13 ± 0.18 |
| CUACAGCAAUAUUACGUCGU | -3.3 ± 0.35 | -2.83 ± 0.25 |
| CUACAGCAAUAUUACGUGCC | -2.73 ± 0.26 | -2.39 ± 0.38 |
| CUACAGCAAUAUUACGUGGA | -2.58 ± 0.12 | -3.11 ± 0.21 |

| Sequence | self-splicing fitness (ln) (30 °C) | self-splicing fitness (ln) (37 °C) |
| --- | --- | --- |
| CUACAGCAAUAUUACGUUAC | -4.4 ± 0.26 | -3.72 ± 0.33 |
| CUACAGCAAUAUUACGUUAU | -3.96 ± 0.13 | -2.79 ± 0.15 |
| CUACAGCAAUAUUACGUUUG | -0.766 ± 0.04 | -0.34 ± 0.06 |
| CUAGAGCAAUAUUACGACAC | -3.9 ± 0.39 | -2.63 ± 0.48 |
| CUAGAGCAAUAUUACGACUC |  | -1.39 ± 0.48 |
| CUAGAGCAAUAUUACGCCAC |  | -3.44 ± 0.47 |
| CUAGAGCAAUAUUACGCCUA | -2.2 ± 0.14 | -1.15 ± 0.12 |
| CUAGAGCAAUAUUACGCGCC | -2.12 ± 0.38 |  |
| CUAGAGCAAUAUUACGCGCU | -3.47 ± 0.23 | -2.19 ± 0.27 |
| CUAGAGCAAUAUUACGCUAG | -3.78 ± 0.34 | -2.49 ± 0.28 |
| CUAGAGCAAUAUUACGCUUG | -3.03 ± 0.21 | -1.83 ± 0.23 |
| CUAGAGCAAUAUUACGGCAU | -3.75 ± 0.19 | -2.75 ± 0.28 |
| CUAGAGCAAUAUUACGGCUG | 0.203 ± 0.11 | -0.255 ± 0.14 |
| CUAGAGCAAUAUUACGGUCA | -3.55 ± 0.23 | -2.47 ± 0.44 |
| CUAGAGCAAUAUUACGGUUA | -3.66 ± 0.24 | -3.14 ± 0.4 |
| CUAGAGCAAUAUUACGUAAG | -0.628 ± 0.06 | 0.154 ± 0.089 |
| CUAGAGCAAUAUUACGUACC | -4.52 ± 0.24 | -3.09 ± 0.35 |
| CUAGAGCAAUAUUACGUGCC | -2.84 ± 0.24 | -1.41 ± 0.24 |
| CUAGAGCAAUAUUACGUUCC |  | 0.291 ± 0.28 |
| CUAGAGCAAUAUUACGUUGC | -3.14 ± 0.32 | -2.18 ± 0.44 |
| CUAGAGCAAUAUUACGUUGG | -1.71 ± 0.11 | -0.638 ± 0.13 |
| CUAGAGCAAUAUUACGUUUC | -4.04 ± 0.31 | -2.01 ± 0.28 |
| CUAGAGCAAUAUUACGUUUG | -1.33 ± 0.088 | -0.528 ± 0.1 |
| CUAUAGCAAUAUUACGAACU | -3.67 ± 0.43 |  |
| CUAUAGCAAUAUUACGAAUC | -2.05 ± 0.36 | -1.9 ± 0.33 |
| CUAUAGCAAUAUUACGAAUG | -0.481 ± 0.087 | 0.0255 ± 0.12 |

| Sequence | self-splicing fitness (ln) (30 °C) | self-splicing fitness (ln) (37 °C) |
| --- | --- | --- |
| CUAUAGCAAUAUUACGACAU | -4.157 ± 0.031 | -3.08 ± 0.045 |
| CUAUAGCAAUAUUACGACUU | -2.98 ± 0.3 | -1.54 ± 0.34 |
| CUAUAGCAAUAUUACGAUGU | -3.67 ± 0.4 | -3.04 ± 0.43 |
| CUAUAGCAAUAUUACGCAUA | -3.93 ± 0.29 | -2.68 ± 0.24 |
| CUAUAGCAAUAUUACGCGAA | -3.27 ± 0.2 | -3.06 ± 0.33 |
| CUAUAGCAAUAUUACGCGCG | -0.981 ± 0.2 | 0.458 ± 0.25 |
| CUAUAGCAAUAUUACGCGUC | -3.97 ± 0.34 | -2.71 ± 0.25 |
| CUAUAGCAAUAUUACGUAAC | -1.97 ± 0.42 |  |
| CUAUAGCAAUAUUACGUAAU | -2.07 ± 0.16 | -3.88 ± 0.36 |
| CUAUAGCAAUAUUACGUACG | 0.0512 ± 0.15 | -0.136 ± 0.14 |
| CUAUAGCAAUAUUACGUCCU | -3.39 ± 0.22 | -2.7 ± 0.29 |
| CUCAAGCAAUAUUACGAAUG | -2.96 ± 0.15 | -1.66 ± 0.2 |
| CUCAAGCAAUAUUACGACCG | -1.26 ± 0.12 | -0.638 ± 0.16 |
| CUCAAGCAAUAUUACGAUCA | -1.3 ± 0.3 | -1.09 ± 0.2 |
| CUCAAGCAAUAUUACGCGAG | -2.5 ± 0.2 | -3.14 ± 0.3 |
| CUCAAGCAAUAUUACGCGCG | -3.19 ± 0.18 | -2.41 ± 0.29 |
| CUCAAGCAAUAUUACGCGUU | -4.07 ± 0.46 | -2.92 ± 0.3 |
| CUCAAGCAAUAUUACGGAGC | -3.11 ± 0.11 | -2.54 ± 0.14 |
| CUCAAGCAAUAUUACGGAUA | -2.72 ± 0.24 | -2.32 ± 0.28 |
| CUCAAGCAAUAUUACGGCUA |  | -2.22 ± 0.35 |
| CUCAAGCAAUAUUACGGGAA | -2.51 ± 0.16 | -1.19 ± 0.14 |
| CUCAAGCAAUAUUACGGGCC | -4.15 ± 0.35 | -2.78 ± 0.36 |
| CUCAAGCAAUAUUACGGUAA | -1.8 ± 0.27 | -1.66 ± 0.18 |
| CUCAAGCAAUAUUACGUAAC | -4.43 ± 0.19 | -2.08 ± 0.15 |
| CUCAAGCAAUAUUACGUCCU | -4 ± 0.27 | -2.79 ± 0.19 |
| CUCAAGCAAUAUUACGUCGA | -3.37 ± 0.31 | -1.41 ± 0.18 |
